The values that follow come from US20140142049A1, “PEGYLATED APELIN AND USES THEREOF” (priority 2011, published 2014).

For test [1], the target named is T1, APJ receptor (Homo sapiens, UniProt P35414).
T1 construct: purchased Perkin Elmer, Waltham, Mass; host or cells: transfected CHO cells (membrane fraction)
T1 sequence (P35414 1-380): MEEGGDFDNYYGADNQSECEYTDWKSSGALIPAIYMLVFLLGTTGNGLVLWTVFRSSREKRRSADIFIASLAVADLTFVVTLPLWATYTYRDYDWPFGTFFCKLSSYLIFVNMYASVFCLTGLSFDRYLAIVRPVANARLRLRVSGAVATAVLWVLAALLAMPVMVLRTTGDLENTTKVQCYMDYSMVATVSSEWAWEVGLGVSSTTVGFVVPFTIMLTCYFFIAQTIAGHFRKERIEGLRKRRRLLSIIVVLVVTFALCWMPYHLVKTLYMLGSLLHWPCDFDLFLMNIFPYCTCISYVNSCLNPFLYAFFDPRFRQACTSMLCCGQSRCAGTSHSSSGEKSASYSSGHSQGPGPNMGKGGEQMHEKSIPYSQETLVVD
Description: APJ receptor binding assay (competitive radioligand binding). To be noted: negative control. The method, then: The binding was performed using competition with ^125I-labelled [Glp^65, Nle^75, Tyr^77]-apelin13 probe for binding to the APJ receptor in a membrane fraction from the transfected CHO cells (Perkin Elmer, Waltham, Mass.). Serially diluted peptide was incubated with membrane and probe for 1 hour at room temperature. The mixture was then filtered over a 1.2 um glass fiber type C filterplate (Millipore Corp., Billerica, Mass.), preblocked with 0.5% polyethylenimine. The plate was washed 4 times with 200 ul ice cold binding buffer and then another 4 times with ice cold 50 mM Tris-HCl, pH7.4, dried and counted with scintillation fluid. The data was analyzed with Graphpad Prism 4 (GraphPad Software, Inc, La Jolla, Calif.) using nonlinear regression.

Test [2] deals with T2, APJ receptor in a membrane fraction from transfected CHO cells (Perkin Elmer) (UniProt P35414 1-380, limits assumed).
T2 construct: whole, on cells; The receptor stood in a membrane fraction of transfected CHO cells, not on whole cells
T2 sequence (looked up): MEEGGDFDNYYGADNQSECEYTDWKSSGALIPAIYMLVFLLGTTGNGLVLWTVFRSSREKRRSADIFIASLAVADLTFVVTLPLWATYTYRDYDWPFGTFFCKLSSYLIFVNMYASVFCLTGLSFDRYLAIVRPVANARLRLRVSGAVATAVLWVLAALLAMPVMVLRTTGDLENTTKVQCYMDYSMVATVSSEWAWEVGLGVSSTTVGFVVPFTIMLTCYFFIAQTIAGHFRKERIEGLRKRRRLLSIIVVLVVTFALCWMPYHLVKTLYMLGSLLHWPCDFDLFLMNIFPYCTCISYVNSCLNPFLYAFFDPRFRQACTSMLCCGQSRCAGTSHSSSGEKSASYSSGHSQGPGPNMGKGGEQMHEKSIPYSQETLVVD
The experiment in a line: competitive radioligand binding, 125I-[Glp65, Nle75, Tyr77]-apelin13 probe, APJ membranes from transfected CHO cells. Here is the method:
The mixture was then filtered over a 1.2 um glass fiber type C filterplate (Millipore Corp., Billerica, Mass.), preblocked with 0.5% polyethylenimine. The plate was washed 4 times with 200 ul ice cold binding buffer and then another 4 times with ice cold 50 mM Tris-HCl, pH7.4, dried and counted with scintillation fluid. The data was analyzed with Graphpad Prism 4 (GraphPad Software, Inc, La Jolla, Calif.) using nonlinear regression.

Consider “α-MSH: 13 amino acid α-MSH peptide negative control”, for which the “binding to APJ receptor (in words)” value in test [1] is reported as “no binding”.

Take SYSMEHFRWGKPV (peptide, UniProt P01189 138-150, looked up, also called negative control) [13 amino acid α-MSH peptide]: in test [2], the binding result is listed as “no binding”.
